According to patent US20210403527A1:
Values belong to the substance of their own block, whether it stands above or below them.

What was measured:
[1] = target: NY-ESO-1 peptide on HLA-A*02:01 (human); assay: AP-1 luciferase reporter; Jurkat J.RT3.T3.5 with CD8A/B; HLA-A2+ 293T cells pulsed with 100 uM NY-ESO-1 peptide; full-length, on cells
[2] = target: composite TCR 001 (human variable domains, mouse constant domains) (mouse) (UniProt P01849); assay: Flow cytometry, dextramer against CD8a, sorted T cells expressing composite TCR 001 after 12 days of post-sort expansion, left panel
Sequence of composite TCR 001 (human variable domains, mouse constant domains) (mouse) (P01849 other isoform, or with tags, fused parts or gaps, chain 1 of 2): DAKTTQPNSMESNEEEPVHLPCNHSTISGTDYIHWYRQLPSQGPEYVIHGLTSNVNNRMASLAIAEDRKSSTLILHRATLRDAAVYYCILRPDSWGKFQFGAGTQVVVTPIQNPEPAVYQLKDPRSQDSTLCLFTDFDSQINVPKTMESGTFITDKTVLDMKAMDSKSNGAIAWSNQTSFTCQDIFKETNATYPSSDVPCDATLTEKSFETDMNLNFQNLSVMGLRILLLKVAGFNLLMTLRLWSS
Sequence of composite TCR 001 (human variable domains, mouse constant domains) (mouse) (P01852 other isoform, or with tags, fused parts or gaps, chain 2 of 2, further chain): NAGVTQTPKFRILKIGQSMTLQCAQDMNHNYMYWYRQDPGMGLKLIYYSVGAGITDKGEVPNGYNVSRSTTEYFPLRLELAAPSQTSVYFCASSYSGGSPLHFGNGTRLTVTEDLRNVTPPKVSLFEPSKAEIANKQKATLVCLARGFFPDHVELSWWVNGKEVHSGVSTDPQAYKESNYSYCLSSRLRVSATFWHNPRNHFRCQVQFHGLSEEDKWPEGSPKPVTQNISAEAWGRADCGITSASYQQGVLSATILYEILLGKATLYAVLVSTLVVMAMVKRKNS

[3] = target: HLA-A2/NY-ESO-1 (157-165) complex on cells (human); assay: cell-based or functional assay

signal to noise ratio (RLU with peptide-pulsed APCs / RLU with non-pulsed APCs) [1]: 6.3
Substance: 1G4

Dex+ CD8+ (share of cells in the gate) [2]: 0.52
Substance: Control Dextramer (peptide-MHC)

Signal to Noise (S/N) ratio (RLU to peptide pulsed APCs divided by RLU to non-pulsed APCs), AP-1 luciferase reporter T cells [3]: 6.3
Substance: patient-derived NY-ESO-1 specific comparator TCR 1G4
